# In patent publication US20150268247A1, “Assay for Screening of Anti-Viral Compounds That Inhibit Specific Interaction Interfaces Between Cullin5 and an ElonginB/ElonginC/ CBF-beta/HIV-1 Vif Complex” (UNIVERSITY OF ROCHESTER, priority 2012, published 2015):
# Tests used:
# [1] = target: T1, Vif/EloB/C/CBFβ quaternary complex (full-length HIV-1 HXB2 Vif(1-192) / ElonginB 1-118 / ElonginC 17 (HIV-1 HXB2; human), P69720; assay: fluorescence anisotropy, complex titrated into 25 nM 5-FAM peptide; Sd ± 4.2
# [2] = target: T1, Vif/EloB/C/CBFβ quaternary complex …; assay: fluorescence anisotropy, complex titrated into 25 nM 5-FAM peptide; Sd ± 0.1
# [3] = target: T1, Vif/EloB/C/CBFβ quaternary complex …; assay: fluorescence anisotropy, complex titrated into 25 nM 5-FAM peptide; Sd ± 1.0
# [4] = target: T1, Vif/EloB/C/CBFβ quaternary complex …; assay: fluorescence anisotropy, complex titrated into 25 nM 5-FAM peptide; Sd ± 7.0
binder,measurement,setting,value
KQQWFDLFSDVH (modifications not checked) [Cul5(37-48) peptide],Kd,[1],15.6 µM
LFSDVHAVCLWD (modifications not checked) [Cul5(43-54) peptide],Kd,[2],2.5 µM
LFSDVHAVCLWDDKGPAKIHQAL (modifications not checked) [Cul5(43-65) peptide],Kd,[3],4.7 µM
KQQWFDLFSDVHAVCLW (modifications not checked) [Cul5(37-53) peptide],Kd,[2],1.2 µM
LRQESVTKQQW (modifications not checked) [Cul5(30-40) peptide],Kd,[4],16 µM
